By Kd is commonly meant the equilibrium constant for the complex coming apart. The low end stands for tighter binding, the high end for weaker binding.

In publication PMC6282390 one finds Kd data, which are given here for one substance.

The test system of data set [1] is Dicer WT (Homo sapiens). Description: EMSA. The settings on record: 5'-phosphate, 3'-OH; 50 mM Tris pH 7.6, 50 mM NaCl, 10% glycerol, 0.05% NP-40, 2 mM DTT, (0.5 mM EDTA for WT), 2 pM RNA (10 pM in Fig. 4 legend), 30 min at 4 °C.
The subject of data set [2] is Dicer D1320A/D1709A (Homo sapiens). Briefly: EMSA. The note with it: 5'-phosphate, 3'-OH; 50 mM Tris pH 7.6, 50 mM NaCl, 10% glycerol, 0.05% NP-40, 2 mM DTT, (0.5 mM EDTA for WT), 2 pM RNA (10 pM in Fig. 4 legend), 30 min at 4 °C. On the technique in general: Mobility shift assays separate free from complexed probe on a gel.

pre-let-7a-1: the Kd in data set [1] is 5 nM; in data set [2], 9 nM.
